Earlier results as cited in paper PMC5758107.
Where “and” joins values, the source holds several entries; their conditions need not be identical. Identical values can stand only once.

Molecular target: Foc ribosome-nascent chain complex (Escherichia coli) (UniProt P68699)
Assay: fluorescence correlation spectroscopy

UniProt P68699, sequence (P68699 whole entry, one chain of several): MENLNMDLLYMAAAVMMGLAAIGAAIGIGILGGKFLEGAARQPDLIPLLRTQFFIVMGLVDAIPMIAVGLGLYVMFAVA

Kd: 210 nM and 85 nM
Substance: YidC (from UniProt P25714)
